Our source for the Kd values is patent US20230331850A1.

Holding throughout (test): Bio-Layer Interferometry (Precision Antibody)
A general note: Biolayer interferometry detects binding as a change in optical thickness at a sensor tip.

In experiment [1] the target is p63:IA^g7 (recombinant peptide:MHCII monomer / tetramer) (mouse).
Experiment [2] deals with 2W:IA^b (recombinant peptide:MHCII monomer) (mouse) (UniProt P14434).
Experiment [3] has as its target Eα52-68:IA^b (mouse) (UniProt P14434).

By Kd is commonly meant the equilibrium constant for the complex coming apart. 10-2.16 MAb (anti-IA^g7) (antibody): the dissociation constant Kd in experiment [1] was 2.9 nM.
AF6-120.1 (antibody): in experiment [2], the Kd was determined as 7.1 nM.
As for Y3P (antibody), the dissociation constant Kd in experiment [2] was 1.9 nM.
In turn, Y-Ae (anti-Eα:IA^b) (antibody) returned an equilibrium dissociation constant (Kd) in experiment [3] of 0.48 nM.
